Target: SARS-CoV-2 S-2P (engineered Spike ectodomain trimer with two stabilizing proline mutations) (SARS-CoV-2)
Assay: […] (200 mM NaCl, 20 mM Tris-HCl pH 7.5), 4 °C; […]

Question: Which stoichiometry N does the source give for “SARS-CoV-2 S-2P (engineered Spike ectodomain trimer with two stabilizing proline mutations) (natural protein)” here?
Answer: 3

Source: publication PMC9907810
